According to the DeepSol protein solubility set:

assay: soluble on expression in E. coli; label from the status in PepcDB or PDB records

| Sequence | soluble on expression in E. coli |
| --- | --- |
| MKTSSASKSHYTGQFPQGDLQPKTPIPVGRNSEIPKDAALSAQLKGLRPLDRKPSKMPTSSSDLQAVNKMIAENRSNDVGKGQFLLSTQSLGSAERVDSQNYHSRNESGKAPLFFSEFATEKPSLQSVKSLSQGKQDYYAVRHVGKRGRDLFTDEPIEGENSKLGRLKTSPLLSTQSQGTRAIRAFAATATIDKSRGEYVARLHRHVVEALGDEGGVVHLLRPTRDHYAEDSTLNFFTFCEQTELASSLNSLEAISAKKEDRKPIVFTDHKSLVGLSRTSRTEASPIGRLVQQPYFVTSDLKRGDKVVITDDHIQAGGSMLAMEAAAKEAGVDVLALATLSAHPFSPQLTMSSEVSAFLDETLAAWDPQGKVTERLAAIGMPREKLTNSEAMILIAYAIDPASDSAILRFESIQNNLFKRAHLHNVGIDPDAPDTLEQMQKLSSMQEMAGTDSARHFVDDAKVLEGEHDSLIPILKMKPASP | not soluble |
| MSLIDAEHIEIALDKRYLRESYLPERALDDILDGQVIIETQGEQVGQVNGLTVIEVTGHPMPYGEPARISCVIHFGDGDIADVERKVELGGNLHAKGMMIMQAFVSSALNLDGSLPFSASIVFEQSYSEVDGDSASLAELCSLVSALSEYPIDQQIAVTGAVDQFGRVQAVGGLNEKIEGFYRVCCHQGLTGEQGVILPSSNLKHLALHKSVVESIKNGEFNIWPVSTVDEAIPLLMGKPFRGEDEDSVIAKIAERIDNFEKLVEGHHHHHH | soluble |
| MGSDKIHHHHHHVINLKELKILHTSDWHLGVTSWTSSRPVDRREELKKALDKVVEEAEKREVDLILLTGDLLHSRNNPSVVALHDLLDYLKRMMRTAPVVVLPGNHDWKGLKLFGNFVTSISSDITFVMSFEPVDVEAKRGQKVRILPFPYPDESEALRKNEGDFRFFLESRLNKLYEEALKKEDFAIFMGHFTVEGLAGYAGIEQGREIIINRALIPSVVDYAALGHIHSFREIQKQPLTIYPGSLIRIDFGEEADEKGAVFVELKRGEPPRYERIDASPLPLKTLYYKKIDTSALKSIRDFCRNFPGYVRVVYEEDSGILPDLMGEIDNLVKIE | soluble |
| MSLKWAHPIPFPETGCVLVATEKLDGYRTFARTVVLLLRAGTRHPQEGPFGVVINRPLHKNIKHMKSTKTELATTFSECSLYFGGPLEASMFLLKTGDKTKIPGFEEVMPGLNFGTRNSLDEAAVLVKKGVLKPQEFRFFVGYAGWQLDQLREEIESDYWHVAACSSDLICGASSENLWEEILQLMGGQYSELSRKPKLDIEGHHHHHH | soluble |
| DKGTALLVNRSLRFGERTAEELMTPRVKIVTLSTTDTVADLIDTASRTGFSRFPVVESDLDDAVGVVHIKHAFAVPAHRRRTARLNSLAQKVPVVPSSLDGDALMERIRSDGMQVAFVVDEYGGTAGMVTMEDLIEEIVGDVR | not soluble |
| MKTTTYNTDWAAEKTKIRSFFDEYYVDNEDGSGKAFPYRDQVFEIARRDKQAIVVNVDHIKESDIPDALELSEAITSNTKRYEVLFKDTISDMIQDYLGDKQAPVIDALDAYMFQRLHMDRNEGAANEEVSLQDKRKKYPPQLLQRFEVYFTTDDAAHETCVRNIKATEIGHLVSMKGVVIRATEVKPCVEVMTYTCDTCAAEVYQPVKGMQFTPPVNCPNKECVEAKANGRLHMQLRGSKFVKFQELKIQELSEQVPVGSIPRTMTVHVYGEMTRKCNTGNVVHVSGVFLPIMQSGFRPTGGLVADTYLEAHYINNLDDNPTFNGVQSAELEVLRRKGDNYETLAASIAPEIFGHVDVKKCLLMALVGGNDNSSNGMKIRGCINVLMMGDPGVAKSQLLGYVNRLAPRSQYTTGRGSSGVGLTAAVMKDPVTGEMSLEGGALVLADGGICCIDEFDKMMDHDRTAIHEVMEQQTISIAKAGIMTTLNARTAIIAAANPAYGRYNPNRSIEQNVDLPAALLSRFDLILLMQDKADRENDKILAEHITYVHQHGCHPNREKKDLISLETLREYISLCKTYTPTVDPALRERIVEAYVEMRRDARYSSDPTFVSPRMILGIVRMATARAKLRLSTIVDESDVEEALRLMQFAKDSLRPEQNKIEKRMAPVDAAFAVLRELYHADNAPIAISNAIQRCARKGISEVALKKCLDQYTANGLLVMDRQNIVFAMN | not soluble |
| MSLTFSILAHDPETGAIGGAAATGSLCVGGWVLRGDLNAGMSASQGAAPSTFWGEEVLQHLRDGSHPEDAVNHVTSQDSGRAYRQLAAMDLLGNAAAFTGSENQDIKGSVTFASGIASGNMLGDNSVLGAMTEAFVASDLTFERRLLAALIAAEGAGSDFRGLLSAAMLVLHPDRPPVTLRIDYHPDNPIGALEQLYQKATTGDYADWARQVPVLSDKERILDEGHHHHHH | soluble |
| IHDDPVEQRDADVAMEKSHRARNERKKNKNHTPSEHPAAAAMHEEKKKVSIEDLVAAVVIEDDPQPEPDVVPTPADDDVMDIVSAALDRAYEEDPDEPSGSDYLPLEEKPQTYAEAVEEFERSPRRKRKTRGNSVSDVPPRKADFEKPEPQPEPEVVVEKVSSRGRRRAVRRTVVEATPEVVAPTETVESSRGRRRAVRKKMAPQPVQTEAVVEDKHEVSAPSQGGRGRRRASRRAPRR | not soluble |
| MHGKDPFSDFREFINTMESRVQELGKAYGVEHLAGPQGFAVRYLFENQDKEIFIKDIEKKLSISKSVASNLVKRMEKNGFVELVTSDKDKRYKYVHLTDLGKKKAQDVGHFREAIHGQLLDGISKEDAETAFRVFHQIRKNLEKNKELEHHHHHH | soluble |
| MNKLITVIRDFSYSVYNWCYETVIGENTRKYKMTWKVPKESLKIIVNKNADARMQRELENRTAKDEANALTSRRRVFGSYALIGTQRAEFIQFRQIKHIDITNASLDFLYNLKQLKHDNLANFYGIQLNDDLNTMTILHALVERGTLEEFCLDRDFGMDETFKSAFMRDILKGLQYLHLSPVAYHGHLHAATCLIDINWVLKIALYGVTNFVCDNFDAENITMPDRSDYTISYAQYVCFPPEHIREYDATGKLPTRFVRGSKQGDIYCVGMIFYMMIEREDPYRLIHSVERPGSGLMMEILDHNLMPFISNNETQEDTLLDKCKECWNRDPEKRPTIENLRNAIAICYADSKGNLIDQMIRMNEKYADELETLVAARSADLALAQMQTMRLLNEMLPASIAKDLKNGVIAPARSYASATVMFVQICDFIVILKRRPPKEVIGFLNDIFDQFDTVIKRHDVETTGETYMVASGVPNENEGRHVFEVAEMSLEIRAISLSYTLENDKNYKLRVRIGFHAGPIAAGVIGIKNPRYCLFGDTVNFASRMQSNCPPLQIQTSEITARMLLATHEYKLVKRGIVHVKGKGEVNCYWLNEHIHKDEEIEESGTISHPLES | not soluble |
| MGHHHHHHSHMVGSRRVKAQTFAERRERSFSRSWSDPTPMKADTSHDSRDSSDLQSSHCTLDEAFEDLDWDTEKGLEAVACDTEGFVPPKVMLISSKVPKAEYIPTIIRRDDPSIIPILYDHEHATFEDILEEIERKLNVYHKGAKIWKMLIFCQGGPGHLYLLKNKVATFAKVEKEEDMIHFWKRLSRLMSKVNPEPNVIHIMGCYILGNPNGEKLFQNLRTLMTPYRVTFESPLELSAQGKQMIETYFDFRLYRLWKSRQHSKLLDFDDVL | not soluble |
| MSKAFDLVVIGAGSGGLEAGWNAATLYGKRVAVVDVQTSHGPPFYAALGGTCVNVGCVPKKLMVTGAQYMDHLRESAGFGWEFDGSSVKANWKKLIAAKNEAVLDINKSYEGMFNDTEGLDFFLGWGSLESKNVVVVRETADPKSAVKERLQADHILLATGSWPQMPAIPGIEHCISSNEAFYLPEPPRRVLTVGGGFISVEFAGIFNAYKPPGGKVTLCYRNNLILRGFDETIREEVTKQLTANGIEIMTNENPAKVSLNTDGSKHVTFESGKTLDVDVVMMAIGRIPRTNDLQLGNVGVKLTPKGGVQVDEFSRTNVPNIYAIGDITDRLMLTPVAINEGAALVDTVFGNKPRKTDHTRVASAVFSIPPIGTCGLIEEVAAKEFEKVAVYMSSFTPLMHNISGSKYKKFVAKIVTNHSDGTVLGVHLLGDGAPEIIQAVGVCLRLNAKISDFYNTIGVHPTSAEELCSMRTPSYYYVKGEKMEKLPDSNL | soluble |
| MGSDKIHHHHHHMTPTMSNIATLDDVRYQEHILQGVSRTFALTIPQLPPALREVVGNAYLLCRIVDTVEDDSALTLEQTRELAEMFIEVVSGTVEAETFARALYPLLSEHTIPAEHDLIKHTPSVIRMTHSFNPVQRQALERCIRIMGQGMAAYQESESLSGLENLAEMDRYCYHVAGVVGEMLTELFCDYSPEINQHKPALMQLSVSFGQGLQMTNILKDIWEDRKRGACWLPRDIFLQEGFDLNDLQPGCPERGFHAGLGTLIGIAKTHLQNALAYTCLIPSHEAGVRRFCLWAIGMAVLTLNKINHKRDFITGREVKISRRSVRATVLITSLLASQDWALKKIFAISSRNLPEVQIARS | not soluble |
| MGSDKIHHHHHHMKLIDLHVHSYHSDGVLAPAVLVAMAAERGLASLAIADHDAVDGIDEAVAEGVRLGVDVIPAVELSVELGRFSDLHILGYCIDHHDPAFRDKLAGFRSARDNRGKAILEKINRRLLHSRKAPLSYDEVLSMAGGAVGRPHIGRVLVDNGYARDMEDAFRRYLIPCNVPKRYMPAGEAIAEIRRIGGVSVLAHPPTITDDRRRLRQVVEQLAQLGLDGLEVFNNLCFKDDMLYLERLAEEFGLLMTGGSDFHGFEDDVELGRGRGGLAVAHSLAEKVKELAAQRKHSHA | not soluble |
| MSLIQNVYINGLSGVSAQPTFDESYVDGNVQTETIPYRKVLDPDYKQYLNPTASRRFSRLIKMSLVAAQKSIAMADGVMPEAIITGTGLGCLEDTEKFLKALIENNESMLSPTAFIQSTHNTISGQIAMMITCYYPNYTYSNRYFTFESSLLDAVLMLLDKSCKHVLVNAADEIIPAVHTIVKRMHLWDRAEAIAHKNALAVTAGEGVVSMMLSSEKKESSVAAVKALELIYILPKDTSIEAHFKKFLAEASLTAADIDVLVLGMNGDAASDVYYEPVRNLFSTSTHVVYKHHFGESFTASSFAYWLGAQLIRHKKIDASVILSDKGHRAPKRVLLYNQSHNKYHSFCLLTDVDEGHHHHHH | not soluble |
| MFTATEAVPVAKVVAGNKRYPGVVALDNVNFTLNKGEVRALLGKNGAGKSTLIRMLTGSERPDSGDIWIGETRLEGDEATLTRRAAELGVRAVYQELSLVEGLTVAENLCLGQWPRRNGMIDYLQMAQDAQRCLQALGVDVSPEQLVSTLSPAQKQLVEIARVMKGEPRVVILDEPTSSLASAEVELVISAVKKMSALGVAVIYVSHRMEEIRRIASCATVMRDGQVAGDVMLENTSTHHIVSLMLGRDHVDIAPVAPQEIVDQAVLEVRALRHKPKLEDISFTLRRGEVLGIAGLLGAGRSELLKAIVGLEEYEQGEIVINGEKITRPDYGDMLKRGIGYTPENRKEAGIIPWLGVDENTVLTNRQKISANGVLQWSTIRRLTEEVMQRMTVKAASSETPIGTLSGGNQQKVVIGRWVYAASQILLLDEPTRGVDIEAKQQIYRIVRELAAEGKSVVFISSEVEELPLVCDRILLLQHGTFSQEFHAPVNVDELMSAILSVH | soluble |
| MKVLFVYAGMHPAHEPFVEAVKADVYPAYHKDVNGFVKFVEGLKMAREYPDYDVYILEGGMPMFPMYLRKKLFRKNGFVVGLLADETFINLVERQPHYSTAETLIHRISAKVLDAAIAVSPFVKEYAEKIIDVPIEVVRPAIPKDSYEKLGKVKPNLESNVIVSVGQPRFSIGMDVLVEQFRIAKKQIPDLELWIVGKGHPKEYERVEGVKVLGYVEDLSEVFEEASLFVHAGRCSAYPVATLEAMRAGLPVVVSTMTGTKEIVERVEEQVKREFGLNYDGNKFIQPLNRIFEGIVEYFKLDSEVRRIMSELYKKESEEFEPGKRGREFKEKFKKLLANFNNKEVP | not soluble |
| MPTYKLSYFDVRAYAEPARILFHLAGVPFDDHRFPHGDGTWEKLKDKTPFGQVPVLYVDGFEIPQSAAIIRYLANKFGYAGKTPEEQAWADAIVDQFKDFMSLFREFKLAQKAGKSDVEIAKVASEVAIPARDSYFEIITNLLEKSKSGFLVGDGLTFADIVVVESLTNLEKVHFFDASEHPKLAALREKIYAIPAIKSWVDIRPDTIY | not soluble |
